# Measurements: the nanobody polyreactivity screen of Harvey et al. (2022)
# Assay: yeast display, Sf9 membrane polyspecificity reagent, FACS + sequencing; frameworks hold sequencing errors
# Outline: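 Galactose induction of a Saccharomyces cerevisiae BJ5465 synthetic nanobody display library ran 36–48 hours. The cells were then stained for 1 hour at 4 °C with 10% biotinylated, detergent-solubilized Sf9 membrane reagent, pulled down on streptavidin microbeads and FACS-sorted into low and high (top ~1%) gates on expression and reagent-binding fluorescence. Labels for polyreactivity follow the gate of origin.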
row,Sequence,polyreactivity (PSR sort gate)
1,QVQLVESGGGLVQAGGSLRLSCAASGFTFRTYAMGWYTQAPGKERELVADISGSGGSTYYADSVKGRFTISRDNAKNTVYLQMNSLKPEDTAVYYCAADYASWSNWGYEYWGQGTQVTVSS,high polyreactivity
2,QVQLVESGGGLVQAGGSLRLSCAASGFTFRTYGMGWYSQAPGKERELVAAISRSSATTYYADSVKGRFTISRDNAKTTVYLQINSLKPEDTAVYYCNAGDLGRRWGMDYSGQGTQVTVSS,low polyreactivity
3,QVQLVESGGGLVQAGGSLRLSCAASGFTFRVYAMGWYRQAPGKERDLVAPISLRGDRTYYADSVKGRFTISRDYAKNTEYLQMNRLKPEDTAVYYCHAYASYQISQDDYDYWGQGTQVTVSS,high polyreactivity
4,QVQLVESGGGLVQAGGSLRLSCAASGFTFRVYAMGWYRQAPGKERELVAAISSGGSTNYADSVKGRFTISRDNAKNTVYLQMNSLKPEDTAVYYCAARQRYYSERPQYSGFYYWGQGTQVTVSS,high polyreactivity
5,QVQLVESGGGLVQAGGSLRLSCAASGFTFRVYAMGWYRQAPGKERELVAAITSGSSTTYADSVKGRFTISRDNAKNTVYLQLNSLKPEDTAVYYCNARRRGRVTGSYGYWGQGTQVTVSS,high polyreactivity
6,QVQLVESGGGLVQAGGSLRLSCAASGFTFRWNAMGWYRQAPGKERELVAAITNDDSTYYADSVKGRFTISRDNAKNTVYLQMNSLKPEDTAVYYCNARYGRYLDLDTGVALAGRGYWGQGTQVSVSS,low polyreactivity
7,QVQLVESGGGLVQAGGSLRLSCAASGFTFRWYAMGWYRQEPGKERELVAAITSSGGRTYYADSVKGRFTISRDNAKNTVYLQMNSMKPEDTAVYYCATDLRTRKYDYWGQGTQVTVSS,high polyreactivity
8,QVQLVESGGGLVQAGGSLRLSCAASGFTFRWYTMGWYRQAPGKERELVASIRYGGGSTYYADSVKGRFTISRDNAKNTVYLQMNSLNPEDTAVYYCAAESAWTSPYDYWGQGTQVTVSS,high polyreactivity
9,QVQLVESGGGLVQAGGSLRLSCAASGFTFRYNAMGWYRQAPGKERELVAAISSDGITSYADSVKGRFTISRDNAKNTVYLQMNSLKPEDTAVYYCAADWRWYSAWHFGYWGQGTQVTVSS,high polyreactivity
10,QVQLVESGGGLVQAGGSLRLSCAASGFTFRYNAMGWYRQAPGKERELVAAISSRGGSTYYADSVKGRFTISRDNAKNTVYLQMNSLKPEDTAVYYCALYGGLGDRFRPRYYWGQGTQVTVSS,high polyreactivity
11,QVQLVESGGGLVQAGGSLRLSCAASGFTFRYNAMGWYRQAPGKERELVATISWRGTSTYYADSVKGRFTISRDNAKNTVYLQMNSLKPEDTAVYYCATRSRDQYSVSYRLDYWGQGTQVTVSS,low polyreactivity
12,QVQLVESGGGLVQAGGSLRLSCAASGFTFRYNAMGWYRQAPGKKGSWVAAISRTGGSTYYADSVKGRFTISRDNAKNTVYLQMNSLKPEDTAVYYCARAPEGTGGKYGYWGQGTQVTVSS,high polyreactivity
13,QVQLVESGGGLVQAGGSLRLSCAASGFTFRYYAMGWYRPAPGKERELVAAISWSGGSTYYADSVKGRFTISRDNAKNTVYLQMYTLIPEDTAVYDCNAAWPGYISNRLGYDYWGQGTQVTVSS,high polyreactivity
14,QVQLVESGGGLVQAGGSLRLSCAASGFTFRYYAMGWYRQAPGKEREFVAAIRSSGTTTSYADSVKGRFTISRDNAKNTVYLHMHSLKPEDTAVYYCAAGYFGPQQYYYWGQGTQVTVSS,high polyreactivity
15,QVQLVESGGGLVQAGGSLRLSCAASGFTFRYYAMGWYRQAPGKEREFVAAISRGGGTTYYADSVKGRFTISRDNAKNTVYLQMNSLKPEDTAVYYCATRALYWRYGYDYWGQGTQVTVSS,high polyreactivity
16,QVQLVESGGGLVQAGGSLRLSCAASGFTFRYYAMGWYRQAPGKERELVAAINYSGGSTFYADSVKGRFTISRDNAKNTVYLQMNSLKPEDTAVYYCAATRLTPYIYGGKYNYWGQGTQVTVSS,high polyreactivity
17,QVQLVESGGGLVQAGGSLRLSCAASGFTFRYYAMGWYRQAPGKERELVAAITGSGVNTYYADSVKGRFTISRDNAKNTVYLQMNSLKPEDTAVYYCAAESESDPLFERYYWGQGTQVTVSS,high polyreactivity
18,QVQLVESGGGLVQAGGSLRLSCAASGFTFRYYAMGWYRQAPGKERELVAAITNVGSTNYADSVKGRFTMSRDNAKHTVYLQMNSLKPEDTAVYYCNARDYYSYDYWGQGTQVTVST,high polyreactivity
19,QVQLVESGGGLVQAGGSLRLSCAASGFTFRYYAMGWYRQAPGKERELVAAITSGDSTYYADSVKGRFTISRDNAKNTVYLQMNSLKPEDTAVYYCAAYYYGYDYWGQGTQVTVSS,high polyreactivity
20,QVQLVESGGGLVQAGGSLRLSCAASGFTFRYYAMGWYRQAPGKERELVAAITSGGGSTYYADSVKGRFTISRDNAKNTVYLQMNSLKPEDTAVYYCATKRARYSYDYWGQGTQVTVSS,high polyreactivity
21,QVQLVESGGGLVQAGGSLRLSCAASGFTFRYYAMGWYRQAPGKERELVAAITSRGGNTYYADSVKGRFTISRDNAKNTVYLQMNSLKPEDTAVYYCAARYSTTMDYWGQGTQVTVSS,high polyreactivity

row,Sequence,polyreactivity (PSR sort gate)
1,QVQLVESGGGLVQAGGSLRLSCAASGFTFRYYAMGWYRQAPGKERELVAAITWSGGRTYYADSVKGRFTISRDNAKNTVYLQMNSLKPEDTAVYYCNTPSLWSGEDYWGQGTQVTVSS,high polyreactivity
2,QVQLVESGGGLVQAGGSLRLSCAASGFTFRYYAMGWYRQAPGKERELVAGISRGGSTYYADSVKGRFTISRDNAKNSVYLQMNSLKPEDTAVYYCAARSYARKSYEMGYWGQGTQVTVSS,high polyreactivity
3,QVQLVESGGGLVQAGGSLRLSCAASGFTFRYYAMGWYRQAPGKERELVAGISWSGSRTYYADSVKGRFTISRDNAKNTVYLQMNSLKPEDTAVYYCAKVNSYGPVPDRYDYWGQGTQVTVSS,high polyreactivity
4,QVQLVESGGGLVQAGGSLRLSCAASGFTFRYYAMGWYRQAPGKERELVARISSRGGSTNYADSVKGRFTISRDNAKNTVYLQMNSLKAEDTAVYFCAAASWNSNRHYYVARYYYWGQGTQVTVSS,high polyreactivity
5,QVQLVESGGGLVQAGGSLRLSCAASGFTFRYYAMGWYRQAPGKERELVASINWSGGSTYYADSVKGRFTISRDNAKNTVYFQMNSLKPEDTAVYYCAADSIWGHYFARFDYWVQGTQVTVSS,high polyreactivity
6,QVQLVESGGGLVQAGGSLRLSCAASGFTFRYYAMGWYRQAPGKERELVASISRSGSTNYADSVKGRFTISRDNAKNTVYLQMNSLKPEDTAVYYCAAQLYSRGGYWGQGTQVTVSS,high polyreactivity
7,QVQLVESGGGLVQAGGSLRLSCAASGFTFRYYAMGWYRQAPGQERELVAAITRGAGSTYYADSVKGRFTISRDNAKNTDYFQMNSLKPEDTAVYYCAAEFFQYYVATPFDPSNYWGQGTQVTVSS,low polyreactivity
8,QVQLVESGGGLVQAGGSLRLSCAASGFTFRYYAMGWYRQEPGKERELVAAISRSDSRTYADSVKGRFTISRDNAMNTVYIQMNSLNPEDTAVYYCNARYGYSSYVFIFDYWGQGTQVTVSS,high polyreactivity
9,QVQLVESGGGLVQAGGSLRLSCAASGFTFRYYTMGWYRQAPGKERELVARITTGGSTYYADPVKGRFTISRDNAKKTVYLQMNSLKPEDTAVYFCAARLSRWWPPTGVHYTDRYYWGQGTQVTVSS,high polyreactivity
10,QVQLVESGGGLVQAGGSLRLSCAASGFTFRYYTMGWYRQAPGKERELVASITWRGGSTYYADSVKARFTISRDNAKNTVYLQMNSMKPEDTAVYYCNAERPYQYYPGIYRWYYYWGQGTQVTVSS,low polyreactivity
11,QVQLVESGGGLVQAGGSLRLSCAASGFTFRYYVMGWYRQAPGIERELVAAISWSGGSTYYADSVKGRFTISRDNAKYTVYLQMNSLNPEDTAVYYCNAASLSKSDYWGQGTQVTVSS,high polyreactivity
12,QVQLVESGGGLVQAGGSLRLSCAASGFTFRYYVMGWYRQAPGKERELVARISTGASTHYADSVKGRFTISRDNAKNSVYLQKNSLKPEDTAVYYCASDHPAFGPGYSFDYWGLGTQVTVSS,low polyreactivity
13,QVQLVESGGGLVQAGGSLRLSCAASGFTFSAYAMGWSRQAPGKERELVAAITLRGGSTYYADSVKGRFTISRDNAKNTVYLQMNSLKPEDTAVYYCAADRIYVAYDYWGQGTQVTVSS,low polyreactivity
14,QVQLVESGGGLVQAGGSLRLSCAASGFTFSEYAMGWYRQAPGKERELVAAISQRGGSTYYADSVKGRFTISRDNAKNTVYLQMNSLKPEDTAVYYCAADSARYYGAKRFGYWGQGTQVTVSS,high polyreactivity
15,QVQLVESGGGLVQAGGSLRLSCAASGFTFSEYAMGWYRQAPGKERELVAAISRGTSTYYADSVKGRFTISRDNAKNTVYLQMNSVKPEDTAVYYCAAAPSYYPARHGYWGQVTQVTVSS,low polyreactivity
16,QVQLVESGGGLVQAGGSLRLSCAASGFTFSFYAMGCDRQAPGKERELVATISSGGSTTYADSVKGRFTISRDNANNTVYLHMNSLKPEDTAVYYCAARYGRVRNYRYDYWGKGTQVTVSS,high polyreactivity
17,QVQLVESGGGLVQAGGSLRLSCAASGFTFSFYAMGWYRQAPGKERELVAPISYSGGITYYADSVKGRFTISRENWKNTVYLQMNSLKPEDTAVYYCAAVPYYSKGSSHYNSGNNYCGQGTQVTVSS,low polyreactivity
18,QVQLVESGGGLVQAGGSLRLSCAASGFTFSFYSMGWYRQAPGKERELVASISDSDGITFYADSVKGSFTISRDNAKNTVYLQMNSLKPEDTAVYYCAADVAIAIPFSYDYWGQGTQVTVSS,low polyreactivity
19,QVQLVESGGGLVQAGGSLRLSCAASGFTFSGYAMGWYRQAPGKERELVAAISTSGGNTYYADSVKGRFTISRDNAKNTVYLQMNSLKPEDTAVYYCAADDWPWGDAGVDYWGQGTLVTVSS,low polyreactivity
20,QVQLVESGGGLVQAGGSLRLSCAASGFTFSHNAMGWYRQAPGKERELVAAISGSGGRTYYADSVKGRFTISRDNAKNTVYLQMNSLKPEDTAVYYCNAGRWWRRGYGYWGQGTQVTVSS,high polyreactivity
